In PMC5651189:
Values belong to the binder of their own block, whether it stands above or below them.

Biological target: PKA regulatory subunit RIα/β (human (endogenous in SK-Br-3)) (UniProt P10644)
Experiment: proximity ligation

Chain of PKA regulatory subunit RIα/β (human (endogenous in SK-Br-3)) (P10644 whole entry): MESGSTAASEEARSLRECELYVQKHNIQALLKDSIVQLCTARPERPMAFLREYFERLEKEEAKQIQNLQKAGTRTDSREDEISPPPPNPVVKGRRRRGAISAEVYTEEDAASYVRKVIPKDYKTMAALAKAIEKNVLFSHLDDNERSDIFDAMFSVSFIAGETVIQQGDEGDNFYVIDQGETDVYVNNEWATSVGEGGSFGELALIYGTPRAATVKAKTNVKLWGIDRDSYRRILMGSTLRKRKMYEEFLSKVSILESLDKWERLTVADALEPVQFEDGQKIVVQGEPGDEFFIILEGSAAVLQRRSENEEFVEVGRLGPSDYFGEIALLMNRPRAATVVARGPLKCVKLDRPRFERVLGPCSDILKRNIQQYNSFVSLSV

fold CICF in SK.dDp against SK.empty and SK.tDp cells: 4 fold
B1: Darpp-32 (dopamine- and cAMP-regulated phosphoprotein of 32 kDa) (natural protein)
chain: MDPKDRKKIQFSVPAPPSQLDPRQVEMIRRRRPTPAMLFRLSEHSSPEEEASPHQRASGEGHHLKSKRPNPCAYTPPSLKAVQRIAESHLQSISNLNENQASEEEDELGELRELGYPREEDEEEEEDDEEEEEEEDSQAEVLKVIRQSAGQKTTCGQGLEGPWERPPPLDESERDGGSEDQVEDPALSEPGEEPQRPSPSEPGT

fold CICF in SK.tDp^T39A against SK.empty cells: 3 fold
B2: t-Darpp T39A phosphorylation mutant (natural protein)
chain: AYAPPSLKAVQRIAESHLQSISNLNENQASEEEDELGELRELGYPREEDEEEEEDDEEEEEEEDSQAEVLKVIRQSAGQKTTCGQGLEGPWERPPPLDESERDGGSEDQVEDPALSEPGEEPQRPSPSEPGT
